Results published in the supplement of paper PMC9112550, “Optimization of the antimicrobial peptide Bac7 by deep mutational scanning” (BMC Biology, 2022).

Test system: Escherichia coli TOP10
Assay: shrunken log2 fold change of peptide-encoding DNA abundance (4.5 h post-induction vs induction); higher = less antimicrobial activity (less host growth inhibition)
Settings: time post-induction: 4.5 h; library: site-saturation at positions 5, 18, 19, 20
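Further: peptides expressed intracellularly from a pBAD plasmid library in pooled LB shake-flask culture, induced with 0.3% L-arabinose, DNA abundance read by NGS, three biological replicates, DESeq2 with apeglm shrinkage.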

Row | Sequence | shrunken log2 fold change
1 | RRIRMRPPRLPRPRPRPFSQPRP | -0.0398
2 | RRIRERPPRLPRPRPRPVNEPRP | -0.224
3 | RRIRMRPPRLPRPRPRPEPCPRP | 1.13
4 | RRIRSRPPRLPRPRPRPEVNPRP | 0.426
5 | RRIRYRPPRLPRPRPRPQRNPRP | -0.758
6 | RRIRQRPPRLPRPRPRPPTTPRP | -0.0101
7 | RRIRNRPPRLPRPRPRPWVQPRP | 0.00853
8 | RRIRFRPPRLPRPRPRPNKIPRP | -0.538
9 | RRIRHRPPRLPRPRPRPGDEPRP | -0.492
10 | RRIRQRPPRLPRPRPRPYITPRP | -0.0324
11 | RRIRERPPRLPRPRPRPLYGPRP | -0.136
12 | RRIRQRPPRLPRPRPRPGRHPRP | 0.0349
13 | RRIRARPPRLPRPRPRPYDMPRP | -0.0195
14 | RRIRPRPPRLPRPRPRPGTHPRP | -0.017
15 | RRIRLRPPRLPRPRPRPKNNPRP | -0.297
16 | RRIRKRPPRLPRPRPRPCFSPRP | -0.51
17 | RRIRTRPPRLPRPRPRPQGHPRP | -0.122
18 | RRIRHRPPRLPRPRPRPPMGPRP | 0.343
19 | RRIRNRPPRLPRPRPRPRSIPRP | -0.288
20 | RRIRNRPPRLPRPRPRPGISPRP | 0.0154
21 | RRIRTRPPRLPRPRPRPDAGPRP | 0.11
22 | RRIRGRPPRLPRPRPRPVGDPRP | 0.802
23 | RRIRWRPPRLPRPRPRPTWIPRP | 0.0497
24 | RRIRGRPPRLPRPRPRPGKFPRP | 0.427
25 | RRIRARPPRLPRPRPRPSCWPRP | 0.628

Row | Sequence | shrunken log2 fold change
26 | RRIRSRPPRLPRPRPRPCVHPRP | -0.471
27 | RRIRWRPPRLPRPRPRPLVLPRP | 0.0697
28 | RRIRRRPPRLPRPRPRPYGGPRP | -0.326
29 | RRIRLRPPRLPRPRPRPYGPPRP | -0.161
30 | RRIRYRPPRLPRPRPRPLKEPRP | 0.0179
31 | RRIRWRPPRLPRPRPRPLGSPRP | -0.0308
32 | RRIRARPPRLPRPRPRPQEFPRP | -0.0568
33 | RRIRARPPRLPRPRPRPPHYPRP | 0.857
34 | RRIRTRPPRLPRPRPRPFHGPRP | -0.0212
35 | RRIRNRPPRLPRPRPRPEGHPRP | 0.00677
36 | RRIRDRPPRLPRPRPRPDCWPRP | 1.65
37 | RRIRLRPPRLPRPRPRPGMLPRP | 0.0285
38 | RRIRMRPPRLPRPRPRPPCAPRP | 2.14
39 | RRIRYRPPRLPRPRPRPPMQPRP | -0.0424
40 | RRIRPRPPRLPRPRPRPNMEPRP | 0.0784
41 | RRIRWRPPRLPRPRPRPVRRPRP | 0.365
42 | RRIRTRPPRLPRPRPRPCKVPRP | -0.233
43 | RRIRSRPPRLPRPRPRPTILPRP | -0.413
44 | RRIRVRPPRLPRPRPRPIDLPRP | -0.417
45 | RRIRRRPPRLPRPRPRPVGYPRP | 0.02
46 | RRIRWRPPRLPRPRPRPPRNPRP | 0.794
47 | RRIRPRPPRLPRPRPRPNLGPRP | -0.242
48 | RRIRDRPPRLPRPRPRPARRPRP | 0.59
49 | RRIRGRPPRLPRPRPRPDSAPRP | 0.525
50 | RRIRWRPPRLPRPRPRPKEHPRP | 0.126

Row | Sequence | shrunken log2 fold change
51 | RRIRIRPPRLPRPRPRPRWMPRP | 0.341
52 | RRIRCRPPRLPRPRPRPTTMPRP | 0.722
53 | RRIRLRPPRLPRPRPRPAIWPRP | 0.016
54 | RRIRHRPPRLPRPRPRPDSWPRP | -0.0468
55 | RRIRSRPPRLPRPRPRPWQQPRP | 0.179
56 | RRIRLRPPRLPRPRPRPQWTPRP | 0.107
57 | RRIRRRPPRLPRPRPRPWWFPRP | -0.378
58 | RRIRGRPPRLPRPRPRPCTYPRP | 0.00971
59 | RRIRERPPRLPRPRPRPCMCPRP | -1.03
60 | RRIRARPPRLPRPRPRPFYIPRP | -0.309
61 | RRIRNRPPRLPRPRPRPLVVPRP | -0.117
62 | RRIRLRPPRLPRPRPRPWSQPRP | -0.145
63 | RRIRKRPPRLPRPRPRPYLAPRP | -0.295
64 | RRIRVRPPRLPRPRPRPFWAPRP | 0.182
65 | RRIRDRPPRLPRPRPRPDASPRP | -0.012
66 | RRIRFRPPRLPRPRPRPCMAPRP | -0.594
67 | RRIRIRPPRLPRPRPRPYWLPRP | -0.413
68 | RRIRIRPPRLPRPRPRPDYLPRP | -0.0127
69 | RRIRTRPPRLPRPRPRPEGAPRP | 0.783
70 | RRIRFRPPRLPRPRPRPLRTPRP | 0.703
71 | RRIRCRPPRLPRPRPRPWPKPRP | 0.0772
72 | RRIRMRPPRLPRPRPRPQAQPRP | 0.299
73 | RRIRNRPPRLPRPRPRPEGKPRP | -0.0135
74 | RRIRPRPPRLPRPRPRPCPPPRP | -0.0276
75 | RRIRERPPRLPRPRPRPVTRPRP | -0.0559

Row | Sequence | shrunken log2 fold change
76 | RRIRQRPPRLPRPRPRPFYPPRP | 0.0712
77 | RRIRQRPPRLPRPRPRPHWFPRP | 0.0358
78 | RRIRVRPPRLPRPRPRPYTVPRP | -0.0784
79 | RRIRDRPPRLPRPRPRPSSWPRP | -0.0298
80 | RRIRMRPPRLPRPRPRPEQVPRP | 0.493
81 | RRIRTRPPRLPRPRPRPNSKPRP | -0.848
82 | RRIRFRPPRLPRPRPRPCCQPRP | -0.439
83 | RRIRRRPPRLPRPRPRPNNNPRP | -0.426
84 | RRIRYRPPRLPRPRPRPRDCPRP | -0.137
85 | RRIRCRPPRLPRPRPRPRTQPRP | 0.323
86 | RRIRFRPPRLPRPRPRPHNSPRP | -0.194
87 | RRIRVRPPRLPRPRPRPCVDPRP | -0.0658
88 | RRIRPRPPRLPRPRPRPDTTPRP | -0.156
89 | RRIRWRPPRLPRPRPRPECAPRP | 0.852
90 | RRIRKRPPRLPRPRPRPQWSPRP | 0.00166
91 | RRIRTRPPRLPRPRPRPKQAPRP | 0.0749
92 | RRIRSRPPRLPRPRPRPSMYPRP | -0.286
93 | RRIRWRPPRLPRPRPRPMVGPRP | 0.171
94 | RRIRHRPPRLPRPRPRPYKEPRP | -0.00664
95 | RRIRYRPPRLPRPRPRPFQIPRP | -0.0359
96 | RRIRKRPPRLPRPRPRPNKVPRP | -0.00759
97 | RRIRFRPPRLPRPRPRPAAWPRP | 0.28
98 | RRIRQRPPRLPRPRPRPKKMPRP | -0.108
99 | RRIRERPPRLPRPRPRPQMYPRP | -0.337
100 | RRIRQRPPRLPRPRPRPMFAPRP | 0.0682

Row | Sequence | shrunken log2 fold change
101 | RRIRHRPPRLPRPRPRPRCVPRP | 0.548
102 | RRIRNRPPRLPRPRPRPMIFPRP | -0.287
103 | RRIRQRPPRLPRPRPRPNSPPRP | -0.0178
104 | RRIRTRPPRLPRPRPRPMAMPRP | 0.0345
105 | RRIRHRPPRLPRPRPRPCMFPRP | -0.995
106 | RRIRSRPPRLPRPRPRPQFKPRP | -0.239
107 | RRIRIRPPRLPRPRPRPVRPPRP | 0.664
108 | RRIRQRPPRLPRPRPRPIEEPRP | -0.00208
109 | RRIRRRPPRLPRPRPRPHMPPRP | -0.037
110 | RRIRPRPPRLPRPRPRPYGHPRP | 0.0138
111 | RRIRGRPPRLPRPRPRPDGRPRP | 0.169
112 | RRIRMRPPRLPRPRPRPIAHPRP | -0.0202
113 | RRIRMRPPRLPRPRPRPAKFPRP | 0.0548
114 | RRIRCRPPRLPRPRPRPQWDPRP | -0.0642
115 | RRIRFRPPRLPRPRPRPIGKPRP | -0.0112
116 | RRIRERPPRLPRPRPRPSGMPRP | -0.46
117 | RRIRHRPPRLPRPRPRPKTLPRP | -0.984
118 | RRIRERPPRLPRPRPRPRPLPRP | 0.176
119 | RRIRPRPPRLPRPRPRPANFPRP | -0.0737
120 | RRIRNRPPRLPRPRPRPRLYPRP | -0.142
121 | RRIRARPPRLPRPRPRPKFEPRP | 0.574
122 | RRIRVRPPRLPRPRPRPCRSPRP | 0.00156
123 | RRIRVRPPRLPRPRPRPCVHPRP | -0.192
124 | RRIRDRPPRLPRPRPRPKYWPRP | -0.147
125 | RRIRNRPPRLPRPRPRPYNYPRP | -0.067

Row | Sequence | shrunken log2 fold change
126 | RRIRTRPPRLPRPRPRPYWVPRP | -0.0888
127 | RRIRWRPPRLPRPRPRPTDPPRP | 0.374
128 | RRIRTRPPRLPRPRPRPGGSPRP | 0.135
129 | RRIRKRPPRLPRPRPRPRLSPRP | 0.0586
130 | RRIRTRPPRLPRPRPRPQWWPRP | 0.199
131 | RRIRMRPPRLPRPRPRPHIEPRP | -0.0375
132 | RRIRIRPPRLPRPRPRPASWPRP | 0.0913
133 | RRIRERPPRLPRPRPRPGEKPRP | -0.00142
134 | RRIRMRPPRLPRPRPRPCFAPRP | 0.431
135 | RRIRCRPPRLPRPRPRPASCPRP | 0.209
136 | RRIRMRPPRLPRPRPRPHPVPRP | 0.0384
137 | RRIRFRPPRLPRPRPRPDPSPRP | -0.323
138 | RRIRYRPPRLPRPRPRPNPPPRP | 0.0395
139 | RRIRPRPPRLPRPRPRPIYQPRP | -0.35
140 | RRIRKRPPRLPRPRPRPVQSPRP | 0.00205
141 | RRIRCRPPRLPRPRPRPYQMPRP | -1.3
142 | RRIRPRPPRLPRPRPRPFHKPRP | -0.453
143 | RRIRWRPPRLPRPRPRPWTFPRP | -0.146
144 | RRIRPRPPRLPRPRPRPINRPRP | -0.11
145 | RRIRSRPPRLPRPRPRPGYEPRP | -0.157
146 | RRIRARPPRLPRPRPRPYEIPRP | -0.059
147 | RRIRARPPRLPRPRPRPSVDPRP | 0.125
148 | RRIRSRPPRLPRPRPRPRAKPRP | 0.244
149 | RRIRPRPPRLPRPRPRPQTLPRP | 0.000929
150 | RRIRSRPPRLPRPRPRPEPKPRP | 0.954
